# Reference: patent US6949349
# Positions of bridges follow the written chain, without caps; N, C: chain ends. No end group written: not given here.
# T1: recombinant human IGFBP-1 (human, UniProt P08833 26-259)
# T1 construct: Biotinylated in some assays; also called rhIGFBP-1
# T1 sequence (looked up): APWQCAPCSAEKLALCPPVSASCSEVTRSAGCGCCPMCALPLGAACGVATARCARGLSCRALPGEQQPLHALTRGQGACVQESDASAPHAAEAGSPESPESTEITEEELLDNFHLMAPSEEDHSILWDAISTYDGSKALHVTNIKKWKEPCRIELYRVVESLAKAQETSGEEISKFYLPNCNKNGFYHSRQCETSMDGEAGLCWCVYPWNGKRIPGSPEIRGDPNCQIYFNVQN
# T2: IGFBP-1 (human, UniProt P08833 26-259)
# T2 construct: Biotinylated in the ELISA assays; also called rhIGFBP-1
# T2 sequence (looked up): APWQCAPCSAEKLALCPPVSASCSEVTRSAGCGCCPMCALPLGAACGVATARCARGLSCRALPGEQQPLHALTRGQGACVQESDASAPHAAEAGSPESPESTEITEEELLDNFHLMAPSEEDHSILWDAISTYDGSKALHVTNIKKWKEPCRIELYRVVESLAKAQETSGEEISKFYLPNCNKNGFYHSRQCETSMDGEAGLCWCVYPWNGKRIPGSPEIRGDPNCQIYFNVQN
# Experiments:
# [1] = target: T3, recombinant human IGFBP-3 (human, UniProt P17936 28-291); experiment: cell-based or functional assay
# [2] = target: T1, recombinant human IGFBP-1; experiment: ELISA: peptide dilutions with 20 nM biotinylated IGFBP-1 on IGF-I coated plate
# Description: (§1) The peptide/IGFBP mix was then removed and the plate was washed ten times with PBS buffer containing 0.05% TWEEN-20™ surfactant.
# [3] = target: T1, recombinant human IGFBP-1; experiment: cell-based or functional assay
# IGFBP-1 [4] = target: T2, IGFBP-1; experiment: BIAcore competition: peptide inhibits IGFBP-1 binding to IGF-II; the reference itself
# IGFBP-1 [5] = target: T2, IGFBP-1; experiment: BIAcore competition: peptide inhibits IGFBP-1 binding to IGF-II; position 3 is Ala in the wt
# IGFBP-1 [6] = target: T2, IGFBP-1; experiment: BIAcore competition: peptide inhibits IGFBP-1 binding to IGF-I; the reference itself
# IGFBP-1 [7] = target: T2, IGFBP-1; experiment: biotinylated-IGFBP-1 ELISA: peptide inhibits IGFBP-1 binding to IGF-I; the reference itself
# Description: as §1
# IGFBP-1 [8] = target: T2, IGFBP-1; experiment: ELISA plate assay: peptide inhibits IGFBP-1 binding to IGF-I; the reference itself
# IGFBP-1 [9] = target: T2, IGFBP-1; experiment: ELISA competition: peptide inhibits IGFBP-1 binding to IGF-I; the reference itself
# IGFBP-1 [10] = target: T2, IGFBP-1; experiment: BIAcore competition: peptide inhibits IGFBP-1 binding to IGF-I; position 3 is Ala in the wt
# [11] = target: T1, recombinant human IGFBP-1; experiment: phage ELISA titration on IGFBP-1 plate with IGF-I (FIG. 28)
# Procedure: The plates were then washed ten times, as above, and a solution of rabbit anti-phage antibody mixed with a goat-anti-rabbit conjugate of horse radish peroxidase was added. After an incubation of 1 hour at room temperature, the plates were developed with a chromogenic substrate, o-phenylenediamine (Sigma). The reaction was stopped with addition of ½ volume of 2.5 M H_2SO_4. Optical density at 490 nm was measured on a spectrophotometric plate reader.
# IGFBP-1 [12] = target: T2, IGFBP-1; experiment: ELISA competition: peptide inhibits IGFBP-1 binding to IGF-I; ratio to bp1-01 (wt)
# IGFBP-1 [13] = target: T2, IGFBP-1; experiment: BIAcore competition: peptide inhibits IGFBP-1 binding to IGF-I; the reference bp1-16 itself
# IGFBP-1 [14] = target: T2, IGFBP-1; experiment: BIAcore competition: peptide inhibits IGFBP-1 binding to IGF-I; ratio against bp1-14
# IGFBP-1 [15] = target: T2, IGFBP-1; experiment: BIAcore competition (starred): peptide inhibits IGFBP-1 binding to IGF-I; ratio to bp1-01 (wt)
# IGFBP-1 [16] = target: T2, IGFBP-1; experiment: ELISA plate assay (starred peptide): peptide inhibits IGFBP-1 binding to IGF-I; ratio against bp1-16
# IGFBP-1 [17] = target: T2, IGFBP-1; experiment: ELISA plate assay (starred peptide): peptide inhibits IGFBP-1 binding to IGF-I; ratio against bp1-14
# IGFBP-1 [18] = target: T2, IGFBP-1; experiment: BIAcore competition: peptide inhibits IGFBP-1 binding to IGF-I; ratio against bp1-16
# IGFBP-3 = target: T4, IGFBP-3 (human, UniProt P17936 28-291); experiment: BIAcore competition: peptide inhibits IGFBP-3 binding to IGF-I; the reference itself
# T4 construct: also called rhIGFBP-3
# [19] = target: T3, recombinant human IGFBP-3; experiment: BIAcore competition: peptide dilutions with 20 nM IGFBP-3 over immobilized IGF-II
# Procedure: IGF-II was immobilized on a dextran chip for inhibition assays using a BIAcore™ 2000 surface-plasmon-resonance device (BIAcore, Inc., Piscataway, N.J.) to measure free binding protein. IGF-II was biotinylated as described above, and injected over a chip to which streptavidin had been coupled (BIAcore, Inc.) to give approximately 1500 RU of immobilized IGF-II. […] After incubation for ≧1 hour at room temperature, an aliquot of 20 µl was injected at a flow rate of 20 µl/min over the IGF-II chip.
# T3 sequence (P17936 28-291 limits assumed): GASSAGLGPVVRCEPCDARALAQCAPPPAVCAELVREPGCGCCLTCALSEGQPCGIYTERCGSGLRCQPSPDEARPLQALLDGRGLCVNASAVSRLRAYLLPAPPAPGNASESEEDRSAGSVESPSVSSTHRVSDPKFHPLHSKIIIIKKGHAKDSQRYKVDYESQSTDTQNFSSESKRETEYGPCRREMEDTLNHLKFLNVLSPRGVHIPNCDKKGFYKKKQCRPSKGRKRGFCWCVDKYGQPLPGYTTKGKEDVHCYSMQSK
# T4 sequence (P17936 28-291 limits assumed): as above
binder,measurement,setting,value
SEEVCWPVAEWYLCN (disulfide 5-14) [BP15],"IC50, KIRA assay (peptide with IGFBP-3:IGF-1 at a 3:1 ratio)",[1],95 µM
"CRAGPLQWLCEKYFG-NH2 (disulfide 1-10; N-terminus assumed; SMILES CC(C)C[C@@H]1NC(=O)[C@H](Cc2c[nH]c3ccccc23)NC(=O)[C@H](CCC(N)=O)NC(=O)[C@H](CC(C)C)NC(=O)[C@@H]2CCCN2C(=O)CNC(=O)[C@H](C)NC(=O)[C@H](CCCNC(=N)N)NC(=O)[C@@H](N)CSSC[C@@H](C(=O)N[C@@H](CCC(=O)O)C(=O)N[C@@H](CCCCN)C(=O)N[C@@H](Cc2ccc(O)cc2)C(=O)N[C@@H](Cc2ccccc2)C(=O)NCC(N)=O)NC1=O, also called bp1-01 (bp3))",IC50,[2],180 nM
same,"IC50, KIRA assay (peptide plus IGF-I plus IGFBP-1)",[3],397 nM
"SEVGCRAGPLQWLCEKYFG-NH2 (disulfide 5-14; N-terminus assumed; SMILES CC(C)C[C@@H]1NC(=O)[C@H](Cc2c[nH]c3ccccc23)NC(=O)[C@H](CCC(N)=O)NC(=O)[C@H](CC(C)C)NC(=O)[C@@H]2CCCN2C(=O)CNC(=O)[C@H](C)NC(=O)[C@H](CCCNC(=N)N)NC(=O)[C@@H](NC(=O)CNC(=O)[C@@H](NC(=O)[C@H](CCC(=O)O)NC(=O)[C@@H](N)CO)C(C)C)CSSC[C@@H](C(=O)N[C@@H](CCC(=O)O)C(=O)N[C@@H](CCCCN)C(=O)N[C@@H](Cc2ccc(O)cc2)C(=O)N[C@@H](Cc2ccccc2)C(=O)NCC(N)=O)NC1=O, 19-mer variant of bp1-01; also called bp1-02 (bp3)) [bp1-02]",IC50,[2],50 nM
same,"IC50, KIRA assay (peptide plus IGF-I plus IGFBP-1)",[3],187 nM
"CRAGPLQWLCEKYFG-NH2 (disulfide 1-10; N-terminus assumed; SMILES CC(C)C[C@@H]1NC(=O)[C@H](Cc2c[nH]c3ccccc23)NC(=O)[C@H](CCC(N)=O)NC(=O)[C@H](CC(C)C)NC(=O)[C@@H]2CCCN2C(=O)CNC(=O)[C@H](C)NC(=O)[C@H](CCCNC(=N)N)NC(=O)[C@@H](N)CSSC[C@@H](C(=O)N[C@@H](CCC(=O)O)C(=O)N[C@@H](CCCCN)C(=O)N[C@@H](Cc2ccc(O)cc2)C(=O)N[C@@H](Cc2ccccc2)C(=O)NCC(N)=O)NC1=O, Synthetic 15-mer; also called (wt); A3)",IC50 (mut)/IC50 (wt),IGFBP-1 [4],1 ratio
same,IC50 (mut)/IC50 (wt),IGFBP-1 [5],1 ratio
same,IC50 (mut)/IC50 (wt),IGFBP-1 [6],1 ratio
same,IC50 (mut)/IC50 (wt),IGFBP-1 [7],1 ratio
same,IC50 (mut)/IC50 (wt),IGFBP-1 [8],1 ratio
same,IC50 (mut)/IC50 (wt),IGFBP-1 [9],1 ratio
same,IC50 (mut)/IC50 (wt),IGFBP-1 [10],1 ratio
"SEVGCRAGPLQWLCEKYF (peptide, not shown: large carriers, not fully specified (C-terminus, bridges); cysteine pairing not given here; also: polyvalent display on phage particle, Tested as a whole phage particle with polyvalent display; also called g8-phage peptide bp1-01) [peptide-phage clone HL-1 (g8 display)]",binding result,[11],binds
CRAGPLQWLCEKAA [bp1-18],IC50 (mut)/IC50 (wt),IGFBP-1 [12],148 ratio
"CRAGPLQWLCEKYF-NH2 (disulfide 1-10 (inferred), bp1-01 lacking the C-terminal Gly) [bp1-16]",IC50 (116)/IC50 (mut),IGFBP-1 [13],1 ratio
same,IC50 (114)/IC50 (mut),IGFBP-1 [14],0.21 ratio
CRKGPLQWLCEKYF (g8 bp1-01 selectant) [bp1-11],IC50 (mut)/IC50 (wt),IGFBP-1 [15],1.9 ratio
CKEGPLQWLCEKYF (g8 bp1-01 selectant) [bp1-12],IC50 (mut)/IC50 (wt),IGFBP-1 [15],2.9 ratio
CKEGPLLWLCEKYF (g8 bp1-01 selectant) [bp1-13],IC50 (mut)/IC50 (wt),IGFBP-1 [15],2.5 ratio
"SEMVCRAGPLQWLCEIYF-NH2 (disulfide 5-14 (inferred), g3 bp1-01 selectant) [bp1-19]",IC50 (116)/IC50 (mut),IGFBP-1 [16],9.9 ratio
same,IC50 (114)/IC50 (mut),IGFBP-1 [17],2.1 ratio
"EARVCRAGPLQWLCEKYF-NH2 (disulfide 5-14 (inferred), g3 bp1-01 selectant) [bp1-20]",IC50 (116)/IC50 (mut),IGFBP-1 [18],12 ratio
same,IC50 (114)/IC50 (mut),IGFBP-1 [14],2.6 ratio
"SEVGCRAGPLQWLCEKYFSTY-NH2 (disulfide 5-14 (inferred), g3 bp1-01 selectant) [bp1-21A]",IC50 (116)/IC50 (mut),IGFBP-1 [18],15 ratio
same,IC50 (114)/IC50 (mut),IGFBP-1 [14],3.2 ratio
"CRAGPLQWLCEKYFSTY-NH2 (disulfide 1-10 (inferred), g3 bp1-01 selectant) [bp1-21B]",IC50 (116)/IC50 (mut),IGFBP-1 [18],3.1 ratio
same,IC50 (114)/IC50 (mut),IGFBP-1 [14],0.67 ratio
SEEVCWPVAEWYLCNMWG (disulfide 5-14) [bp3-01-ox],IC50 (mut)/IC50 (wt),IGFBP-3,1 ratio
"VAWEVCWDRHDQGYICTTDS (disulfide 6-16, Synthetic peptide corresponding to phage clone 4D3.11 (g8) and 3Bi.1 (g3); also called BP14; BP3-4D3.11 (BP14)) [BP3-4D3.11]",IC50,[19],1000 nM
